Measurements published in paper PMC8142927, “Destabilization of EpCAM dimer is associated with increased susceptibility towards cleavage by TACE” (PeerJ, 2021).
Changes are numbered by the printed parent chain. Names and notes keep the numbering of the source.

B1: EpEX (EpCAM extracellular part, residues 24-265, with mutated N-glycosylation sites N74Q, N111Q and N198Q) (domain or fragment, human)
chain: QEECVCENYKLAVNCFVNNNRQCQCTSVGAQNTVICSKLAAKCLVMKAEMQGSKLGRRAKPEGALQNNDGLYDPDCDESGLFKAKQCQGTSMCWCVNTAGVRRTDKDTEITCSERVRTYWIIIELKHKAREKPYDSKSLRTALQKEITTRYQLDPKFITSILYENNVITIDLVQQSSQKTQNDVDIADVAYYFEKDVKGESLFHSKKMDLTVNGEQLDLDPGQTLIYYVDEKAPEFSMQGLKLE
notes: Epithelial cell adhesion molecule (EpCAM, CD326), human, extracellular part EpEX, residues 24-265, N-glycosylation sites mutated; residues translated from the XhoI scar, between K265 and the His6-tag; in solution it is a dimer in equilibrium with a small amount of monomer; also called wild type-like EpEX; non-glycosylated EpEX variant; source: Sf9 insect cells (baculovirus), culture supernatant, …
B2: EpEX L264C (domain or fragment, human)
chain: B1 chain with L241C
modifications: disulfide bond between the introduced cysteine residues (C264) of the two subunits
notes: residues translated from the XhoI scar, between K265 and the His6-tag; Derived from m1; the protein is a constitutive dimer of two subunits linked by a disulfide; PDB 4mzv is the parent EpEX; also called disulfide-stabilized dimeric form; covalently stabilized EpEX dimer; source: Sf9 insect cells (baculovirus), culture supernatant, purified (His-tag column, ion exchange, SEC); not shown: His6, …

Target: the molecule itself
Assay: SEC-MALS; SEC with right- and low-angle laser light scattering detectors (SEC-RALLS/LALLS, OMNISEC), Superdex 200 Increase 10/300 GL, 150 μg of protein injected per run, 25 °C, 0.5 ml/min, 20 mM HEPES, pH 7.5, 100 mM NaCl; dimer to monomers

Protein | stoichiometry N
B1 | 2
B2 | 2
